Test results as given in US20090291890A1 (published 2009).
Numbering of substitutions follows the chain as printed. In names and notes the source's numbering stands. Several values for one entry are separate records, joined by “and”; a condition that tells them apart may be missing. Identical values can stand only once. Blank lines part the entries; values can stand above or below the molecule they belong to.

Columns and labels:
[1] = target: Factor X (Homo sapiens (Human)) (UniProt P00742)
Mesyl-dFPR-ACC = target: T1, Mesyl-dFPR-ACC
T1 sequence (peptide, N-terminal mesyl; D-Phe at position 1 (dF); C-terminal ACC fluorophore): FPR

[2] = target: Factor X (FX) (Homo sapiens (Human)) (UniProt P00742)
Chain of Factor X (FX) (Homo sapiens (Human)) (P00742 41-488 limits assumed): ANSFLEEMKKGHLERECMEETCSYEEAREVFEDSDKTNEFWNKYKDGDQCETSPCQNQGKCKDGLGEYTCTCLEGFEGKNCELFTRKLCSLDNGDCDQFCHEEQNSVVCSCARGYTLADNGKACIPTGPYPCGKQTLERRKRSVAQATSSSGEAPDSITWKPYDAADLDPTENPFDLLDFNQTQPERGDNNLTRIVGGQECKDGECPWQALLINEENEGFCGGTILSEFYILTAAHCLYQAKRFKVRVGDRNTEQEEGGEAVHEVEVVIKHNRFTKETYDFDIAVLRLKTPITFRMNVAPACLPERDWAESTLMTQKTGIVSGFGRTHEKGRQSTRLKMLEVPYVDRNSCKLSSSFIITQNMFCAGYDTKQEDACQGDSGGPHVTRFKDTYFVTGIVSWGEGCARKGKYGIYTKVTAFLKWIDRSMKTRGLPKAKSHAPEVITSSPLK

kcat/KM (M^-1s^-1), TF-dependent assay [1]: 1.25e+08 M⁻¹ s⁻¹
kcat/KM, TF-independent assay [1]: 244 M⁻¹ s⁻¹
Activity (µmol/sec/µmol), specific activity for mesyl-dFPR-ACC (µmol/sec/µmol) (Mesyl-dFPR-ACC): 0.67
Molecule: Gla swap FIX/T239I/Q286R/M298Q-FVIIa (enzyme)

kcat/KM (M^-1s^-1), TF-dependent assay [1]: 2.03e+08 M⁻¹ s⁻¹ and 9.94e+07 M⁻¹ s⁻¹
Activity (µmol/sec/µmol), specific activity for mesyl-dFPR-ACC (µmol/sec/µmol) (Mesyl-dFPR-ACC): 0.66
Molecule: Gla swap FIX/S222A/T239V/Q286R-FVIIa (enzyme)

kcat/KM (M^-1s^-1), TF-dependent assay [1]: 6.25e+07 M⁻¹ s⁻¹
kcat/KM, TF-independent assay [1]: 4.8 M⁻¹ s⁻¹
Activity (µmol/sec/µmol), specific activity for mesyl-dFPR-ACC (µmol/sec/µmol) (Mesyl-dFPR-ACC): 2.7
Molecule: T128N/P129A/S222A-FVIIa (enzyme)

Activity (µmol/sec/µmol), specific activity for mesyl-dFPR-ACC (µmol/sec/µmol) (Mesyl-dFPR-ACC): 2.31
Molecule: WT (NovoSeven®) FVIIa (enzyme)

kcat/KM (M^-1s^-1), TF-dependent assay [1]: 5.38e+07 M⁻¹ s⁻¹
kcat/KM, TF-independent assay [1]: 41.3 M⁻¹ s⁻¹
Activity (µmol/sec/µmol), specific activity for mesyl-dFPR-ACC (µmol/sec/µmol) (Mesyl-dFPR-ACC): 1.63
Molecule: Gla swap FIX-FVIIa (enzyme)

kcat/KM, TF-dependent assay [1]: 7.43e+07 M⁻¹ s⁻¹
Activity (µmol/sec/µmol), specific activity for mesyl-dFPR-ACC (µmol/sec/µmol) (Mesyl-dFPR-ACC): 3.03
Molecule: A122N/G124S/A175S/Q286R/M298Q-FVIIa (enzyme)

kcat/KM (M^-1s^-1), TF-dependent assay [1]: 2.55e+08 M⁻¹ s⁻¹ and 2.3e+08 M⁻¹ s⁻¹
kcat/KM, TF-independent assay [1]: 673 M⁻¹ s⁻¹ and 678 M⁻¹ s⁻¹
Activity (µmol/sec/µmol), specific activity for mesyl-dFPR-ACC (µmol/sec/µmol) (Mesyl-dFPR-ACC): 1.53
Molecule: Gla swap FIX/Q286R/M298Q-FVIIa (enzyme)

Activity (µmol/sec/µmol), specific activity for mesyl-dFPR-ACC (µmol/sec/µmol) (Mesyl-dFPR-ACC): 2.4
Molecule: WT FVIIa (enzyme)

kcat/KM, TF-Dependent Indirect Assay [2]: 3.77e+07 M⁻¹ s⁻¹
B1: FVIIa variant T239L (enzyme)
chain: ANAFLEELRPGSLERECKEEQCSFEEAREIFKDAERTKLFWISYSDGDQCASSPCQNGGSCKDQLQSYICFCLPAFEGRNCETHKDDQLICVNENGGCEQYCSDHTGTKRSCRCHEGYSLLADGVSCTPTVEYPCGKIPILEKRNASKPQGRIVGGKVCPKGECPWQVLLLVNGAQLCGGTLINTIWVVSAAHCFDKIKNWRNLIAVLGEHDLSEHDGDEQSRRVAQVIIPSTYVPGTLNHDIALLRLHQPVVLTDHVVPLCLPERTFSERTLAFVRFSLVSGWGQLLDRGATALELMVLNVPRLMTQDCLQQSRKVGDSPNITEYMFCAGYSDGSKDSCKGDSGGPHATHYRGTWYLTGIVSWGQGCATVGHFGVYTRVSQYIEWLQKLMRSEPRPGVLLRAPFP

kcat/KM, TF-Dependent Indirect Assay [2]: 1.28e+08 M⁻¹ s⁻¹
B2: FVIIa variant H257A/M298Q (enzyme)
chain: B1 chain with L239T, H257A, M298Q

kcat/KM, TF-Dependent Indirect Assay [2]: 2.02e+07 M⁻¹ s⁻¹
B3: FVIIa variant Q286L (enzyme)
chain: B1 chain with L239T, Q286L

kcat/KM, TF-Dependent Indirect Assay [2]: 4.48e+07 M⁻¹ s⁻¹
B4: FVIIa variant P321Y (enzyme)
chain: B1 chain with L239T, P321Y

kcat/KM, TF-Dependent Indirect Assay [2]: 1.64e+07 M⁻¹ s⁻¹
B5: FVIIa variant T239N (enzyme)
chain: B1 chain with L239N

kcat/KM, TF-Dependent Indirect Assay [2]: 6.71e+07 M⁻¹ s⁻¹
B6: FVIIa variant H257S/Q366V (enzyme)
chain: B1 chain with L239T, H257S, Q366V

kcat/KM, TF-Dependent Indirect Assay [2]: 3.93e+07 M⁻¹ s⁻¹
B7: FVIIa variant H257S/Q286R (enzyme)
chain: B1 chain with L239T, H257S, Q286R

kcat/KM, TF-Dependent Indirect Assay [2]: 2e+08 M⁻¹ s⁻¹
B8: FVIIa variant S222A/H257A/Q286R/M298Q (enzyme)
chain: B1 chain with S222A, L239T, H257A, Q286R, M298Q

kcat/KM, TF-Dependent Indirect Assay [2]: 6.82e+07 M⁻¹ s⁻¹
B9: FVIIa variant S222N (enzyme)
chain: B1 chain with S222N, L239T

kcat/KM, TF-Dependent Indirect Assay [2]: 1.51e+08 M⁻¹ s⁻¹
B10: FVIIa variant Q286R/M298Q/H373F (enzyme)
chain: B1 chain with L239T, Q286R, M298Q, H373F

kcat/KM, TF-Dependent Indirect Assay [2]: 1.91e+07 M⁻¹ s⁻¹
B11: FVIIa variant Q286R/M298Q/Q366D (enzyme)
chain: B1 chain with L239T, Q286R, M298Q, Q366D

kcat/KM, TF-Dependent Indirect Assay [2]: 1.27e+08 M⁻¹ s⁻¹
B12: FVIIa variant S222A/Q286R/Q366V (enzyme)
chain: B1 chain with S222A, L239T, Q286R, Q366V

kcat/KM, TF-Dependent Indirect Assay [2]: 5.53e+07 M⁻¹ s⁻¹
B13: FVIIa variant P321S (enzyme)
chain: B1 chain with L239T, P321S

kcat/KM, TF-Dependent Indirect Assay [2]: 9.37e+07 M⁻¹ s⁻¹
B14: FVIIa variant Q366I (enzyme)
chain: B1 chain with L239T, Q366I

kcat/KM, TF-Dependent Indirect Assay [2]: 7.92e+07 M⁻¹ s⁻¹
B15: FVIIa variant Q286R/Q366V (enzyme)
chain: B1 chain with L239T, Q286R, Q366V

kcat/KM, TF-Dependent Indirect Assay [2]: 6.61e+07 M⁻¹ s⁻¹
B16: FVIIa variant Q366M (enzyme)
chain: B1 chain with L239T, Q366M

kcat/KM, TF-Dependent Indirect Assay [2]: 7.75e+07 M⁻¹ s⁻¹
B17: FVIIa variant S222A/H257A/M298Q (enzyme)
chain: B1 chain with S222A, L239T, H257A, M298Q

kcat/KM, TF-Dependent Indirect Assay [2]: 9.08e+07 M⁻¹ s⁻¹
B18: FVIIa variant Q286R/H373F (enzyme)
chain: B1 chain with L239T, Q286R, H373F

kcat/KM, TF-Dependent Indirect Assay [2]: 1.61e+07 M⁻¹ s⁻¹
B19: FVIIa variant Q286Y (enzyme)
chain: B1 chain with L239T, Q286Y

kcat/KM, TF-Dependent Indirect Assay [2]: 5.34e+07 M⁻¹ s⁻¹
B20: FVIIa variant S222D (enzyme)
chain: B1 chain with S222D, L239T

kcat/KM, TF-Dependent Indirect Assay [2]: 3.5e+07 M⁻¹ s⁻¹
B21: FVIIa variant T239I (enzyme)
chain: B1 chain with L239I

kcat/KM, TF-Dependent Indirect Assay [2]: 8.49e+07 M⁻¹ s⁻¹
B22: FVIIa variant M298Q/H373F (enzyme)
chain: B1 chain with L239T, M298Q, H373F

kcat/KM, TF-Dependent Indirect Assay [2]: 1.53e+07 M⁻¹ s⁻¹
B23: FVIIa variant Q286R/Q366D (enzyme)
chain: B1 chain with L239T, Q286R, Q366D

kcat/KM, TF-Dependent Indirect Assay [2]: 5.25e+07 M⁻¹ s⁻¹
B24: FVIIa variant Q286M (enzyme)
chain: B1 chain with L239T, Q286M

kcat/KM, TF-Dependent Indirect Assay [2]: 5.59e+07 M⁻¹ s⁻¹
B25: FVIIa variant P321E (enzyme)
chain: B1 chain with L239T, P321E

kcat/KM, TF-Dependent Indirect Assay [2]: 3.64e+07 M⁻¹ s⁻¹
B26: FVIIa variant S222A/H373A (enzyme)
chain: B1 chain with S222A, L239T, H373A

kcat/KM, TF-Dependent Indirect Assay [2]: 3.43e+07 M⁻¹ s⁻¹
B27: FVIIa variant P321K (enzyme)
chain: B1 chain with L239T, P321K

kcat/KM, TF-Dependent Indirect Assay [2]: 5.48e+07 M⁻¹ s⁻¹
B28: FVIIa variant S222E (enzyme)
chain: B1 chain with S222E, L239T

kcat/KM, TF-Dependent Indirect Assay [2]: 6.62e+07 M⁻¹ s⁻¹
B29: FVIIa variant H216A/H257A (enzyme)
chain: B1 chain with H216A, L239T, H257A

kcat/KM, TF-Dependent Indirect Assay [2]: 1.86e+08 M⁻¹ s⁻¹
B30: FVIIa variant S222A/H257A/Q286R/Q366V (enzyme)
chain: B1 chain with S222A, L239T, H257A, Q286R, Q366V

kcat/KM, TF-Dependent Indirect Assay [2]: 1.84e+07 M⁻¹ s⁻¹
B31: FVIIa variant Q366V/H373V (enzyme)
chain: B1 chain with L239T, Q366V, H373V

kcat/KM, TF-Dependent Indirect Assay [2]: 1.02e+08 M⁻¹ s⁻¹
B32: FVIIa variant A51N (enzyme)
chain: B1 chain with A51N, L239T

kcat/KM, TF-Dependent Indirect Assay [2]: 8.08e+07 M⁻¹ s⁻¹
B33: FVIIa variant A175S/Q286R/Q366V (enzyme)
chain: B1 chain with A175S, L239T, Q286R, Q366V

kcat/KM, TF-Dependent Indirect Assay [2]: 5.46e+07 M⁻¹ s⁻¹
B34: FVIIa variant H216A/S222A (enzyme)
chain: B1 chain with H216A, S222A, L239T

kcat/KM, TF-Dependent Indirect Assay [2]: 3.07e+07 M⁻¹ s⁻¹
B35: FVIIa variant Q366V/H373L (enzyme)
chain: B1 chain with L239T, Q366V, H373L

kcat/KM, TF-Dependent Indirect Assay [2]: 5.75e+07 M⁻¹ s⁻¹
B36: FVIIa variant S119N/L121S (enzyme)
chain: B1 chain with S119N, L121S, L239T

kcat/KM, TF-Dependent Indirect Assay [2]: 5.42e+07 M⁻¹ s⁻¹
B37: FVIIa variant Q286R/Q366N (enzyme)
chain: B1 chain with L239T, Q286R, Q366N

kcat/KM, TF-Dependent Indirect Assay [2]: 3.78e+07 M⁻¹ s⁻¹
B38: FVIIa variant A175S/S222A/Q366V (enzyme)
chain: B1 chain with A175S, S222A, L239T, Q366V

kcat/KM, TF-Dependent Indirect Assay [2]: 6.04e+07 M⁻¹ s⁻¹
B39: FVIIa variant S222V (enzyme)
chain: B1 chain with S222V, L239T

kcat/KM, TF-Dependent Indirect Assay [2]: 7.13e+07 M⁻¹ s⁻¹
B40: FVIIa variant S222A/M298Q (enzyme)
chain: B1 chain with S222A, L239T, M298Q

kcat/KM, TF-Dependent Indirect Assay [2]: 9.9e+06 M⁻¹ s⁻¹
B41: FVIIa variant T239H (enzyme)
chain: B1 chain with L239H

kcat/KM, TF-Dependent Indirect Assay [2]: 1.18e+07 M⁻¹ s⁻¹
B42: FVIIa variant Q286R/M298Q/K341D (enzyme)
chain: B1 chain with L239T, Q286R, M298Q, K341D

kcat/KM, TF-Dependent Indirect Assay [2]: 5.02e+07 M⁻¹ s⁻¹
B43: FVIIa variant S222A/H257A (enzyme)
chain: B1 chain with S222A, L239T, H257A

kcat/KM, TF-Dependent Indirect Assay [2]: 1.11e+07 M⁻¹ s⁻¹
B44: FVIIa variant Q286R/K341D (enzyme)
chain: B1 chain with L239T, Q286R, K341D

kcat/KM, TF-Dependent Indirect Assay [2]: 1.04e+08 M⁻¹ s⁻¹
B45: FVIIa variant Q286R/M298Q/Q366N (enzyme)
chain: B1 chain with L239T, Q286R, M298Q, Q366N

kcat/KM, TF-Dependent Indirect Assay [2]: 5.89e+07 M⁻¹ s⁻¹
B46: FVIIa variant Q286R/H373A (enzyme)
chain: B1 chain with L239T, Q286R, H373A

kcat/KM, TF-Dependent Indirect Assay [2]: 1.58e+08 M⁻¹ s⁻¹
B47: FVIIa variant H257S/Q286R/Q366V (enzyme)
chain: B1 chain with L239T, H257S, Q286R, Q366V

kcat/KM, TF-Dependent Indirect Assay [2]: 6.87e+07 M⁻¹ s⁻¹
B48: FVIIa variant Q366L (enzyme)
chain: B1 chain with L239T, Q366L
